The results in this text go back to patent US20240368250A1 (Ablynx, published 2024).

Usually kon stands for the rate constant with which the complex forms. A high value points to faster complex formation. In general, koff refers to the first-order rate constant of dissociation. A low value points to a long-lived complex.

Test [1] has as its target T1, Human serum albumin (HSA; Sigma-Aldrich Cat No. A8763) (human, UniProt P02768 25-609). In words: SPR Biacore 8K+, HSA on C1 chip, pH 7.4, bivalent analyte fit (KD1).
Test [2] deals with T1, Human serum albumin (HSA; Sigma-Aldrich …). In words: SPR Biacore 8K+, HSA on C1 chip, pH 7.4, bivalent analyte fit (ka1). A general note: Surface plasmon resonance follows binding to a sensor surface in real time, without labels.
Test [3] has the same target. In words: SPR Biacore 8K+, HSA on C1 chip, pH 7.4, bivalent analyte fit (kd1).
Test [4] deals with T2, Mouse serum albumin (MSA; Albumin Bioscience Cat No. 2601) (mouse, UniProt P07724 25-608). In words: SPR Biacore 8K+, MSA on C1 chip, pH 7.4, bivalent analyte fit (KD1).
Test [5] addresses T2, Mouse serum albumin (MSA; Albumin …). In words: SPR Biacore 8K+, MSA on C1 chip, pH 7.4, bivalent analyte fit (ka1).
For test [6] the target is unchanged. In words: SPR Biacore 8K+, MSA on C1 chip, pH 7.4, bivalent analyte fit (kd1).
In test [7] the target is T3, Human FcRn (biotinylated human FcRn) (human, UniProt P61769 21-119).
T3 construct: Biotinylated human FcRn captured on a Series S Sensor Chip SA; also called human neonatal Fc receptor; hFcRn
In words: SPR Biacore 8K+, biotinylated hFcRn on SA chip (~500-600 RU), pH 6.0, bivalent analyte fit.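 Further: analytes were Fc proteins binding to biotinylated human FcRn captured on a Series S streptavidin sensor chip.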

In test [8] the target is T3, Human FcRn (biotinylated human FcRn). In words: SPR Biacore 8K+, biotinylated hFcRn on SA chip (~500-600 RU), pH 6.0, bivalent analyte fit (KD1).
For test [9] the target is unchanged. In words: SPR Biacore 8K+, biotinylated hFcRn on SA chip (~500-600 RU), pH 6.0, bivalent analyte fit (ka1).
The target is the same in test [10]. In words: SPR Biacore 8K+, biotinylated hFcRn on SA chip (~500-600 RU), pH 6.0, bivalent analyte fit (kd1).
The target in test [11] is T1, Human serum albumin (HSA; Sigma-Aldrich …). In words: SPR Biacore 8K+, HSA on C1 chip, pH 7.4, off-rate column.
Test [12] deals with T2, Mouse serum albumin (MSA; Albumin …). In words: SPR Biacore 8K+, MSA on C1 chip, pH 7.4, off-rate column.

B1: TPP-66177 (Fc fusion)
chain: DVQLVESGGGVVQAGGSLSISCAASGGSLSNYVLGWFRQAPGKEREFVAAINWRGDITIGPPNVEGRFTISRDNAKNTGYLQMNSLAPDDTALYYCGAGTPLNPGAYIYDWSYDYWGRGTLVTVSSDKTHTCPSCPAPEAAGGPSVFLFPPKPKDTLMISRTPEVTCVVVDVSQEDPEVQFNWYVDGVEVHNAKTKPREEQFNSTYRVVSVLTVLHQDWLNGKEYKCKVSNKGLPSSIEKTISKAKGQPREPQVYTLPPSQEEMTKNQVSLTCLVKGFYPSDIAVEWESNGQPENNYKTTPPVLDSDGSFFLYSKLTVDKSRWQEGNVFSCSVMHEALHNHYTQKSLSLSLGGGGGSGGGGSGGGGSGGGGSGGGGSGGGGSGGGGSEVQLVESGGGVVQPGGSLRLSCAASGFTFRSFGMSWVRQAPGKGPEWVSSISGSGSDTLYADSVKGRFTISRDNSKNTLYLQMNSLRPEDTALYYCTIGGSLSRSSQGTLVTVSSA
notes: Symmetrical IgG4 FALA Fc fusion without knob-in-hole mutations, two C-terminal ALB23002 via 35GS; also called symmetrical ALB23002 ISVD-Fc polypeptide
On to B1, for which the figures for the Kd in [1], in test [4] and in test [8] were 14.3 nM, 8.8 nM and 1690 nM, respectively. Besides, the association rate constant (kon) is 54300 M⁻¹ s⁻¹ in test [2], 45900 M⁻¹ s⁻¹ in [5] and 51500 M⁻¹ s⁻¹ in test [9]. In addition, the koff was found to be 0.000776 s⁻¹ in [3], 0.000404 s⁻¹ in test [6] and 0.0872 s⁻¹ in [10]. This molecule also returned a KD2 in [7] of 3.64 M. Moreover, the ka2 in test [7] is 4.07e-05 1/RUs. In test [7], this molecule displayed a kd2 of 0.000148 s⁻¹.

B2: TPP-66150 (Fc fusion)
chain 1: DVQLVESGGGVVQAGGSLSISCAASGGSLSNYVLGWFRQAPGKEREFVAAINWRGDITIGPPNVEGRFTISRDNAKNTGYLQMNSLAPDDTALYYCGAGTPLNPGAYIYDWSYDYWGRGTLVTVSSDKTHTCPPCPAPEAAGGPSVFLFPPKPKDTLMISRTPEVTCVVVDVSQEDPEVQFNWYVDGVEVHNAKTKPREEQFNSTYRVVSVLTVLHQDWLNGKEYKCKVSNKGLPSSIEKTISKAKGQPREPQVYTLPPCQEEMTKNQVSLWCLVKGFYPSDIAVEWESNGQPENNYKTTPPVLDSDGSFFLYSKLTVDKSRWQEGNVFSCSVMHEALHNHYTQKSLSLSLG
chain 2: DVQLVESGGGVVQAGGSLSISCAASGGSLSNYVLGWFRQAPGKEREFVAAINWRGDITIGPPNVEGRFTISRDNAKNTGYLQMNSLAPDDTALYYCGAGTPLNPGAYIYDWSYDYWGRGTLVTVSSDKTHTCPPCPAPEAAGGPSVFLFPPKPKDTLMISRTPEVTCVVVDVSQEDPEVQFNWYVDGVEVHNAKTKPREEQFNSTYRVVSVLTVLHQDWLNGKEYKCKVSNKGLPSSIEKTISKAKGQPREPQVCTLPPSQEEMTKNQVSLSCAVKGFYPSDIAVEWESNGQPENNYKTTPPVLDSDGSFFLVSKLTVDKSRWQEGNVFSCSVMHEALHNRFTQKSLSLSLGGGGGSGGGGSGGGGSGGGGSGGGGSGGGGSGGGGSDLGKKLLEAARAGQDDEVRELLKAGADVNAKDYFSHTPLHLAARNGHLKIVEVLLKAGADVNAKDFAGKTPLHLAANEGHLEIVEVLLKAGADVNAQDIFGKTPADIAADAGHEDIAEVLQKAA
With B2, the binding result in test [11] is reported as “binds”. Besides, the binding result in [12] is listed as “binds”. In test [7], the KD2 is 6.37 M, the ka2 is 3.02e-05 1/RUs and the kd2 is 0.000192 s⁻¹. In addition, in test [8], the Kd turned out to be 1160 nM. The same molecule showed a kon in [9] of 73900 M⁻¹ s⁻¹. This molecule returned a koff in test [10] of 0.0859 s⁻¹.
